Assay results published in patent publication US20200199567A1, “METHODS FOR SELECTION AND EXPANSION OF T CELLS EXPRESSING PD-1” (MEDIMMUNE, LLC, priority 2018, published 2020).
Each block holds one molecule with its values, some of them ahead of it.

How the values were obtained:
[1] = tested on: PD-1 expression in peripheral blood; assay: PD-1 expression in peripheral blood after anti-CTLA-4 pre-treatment, Taqman qRT-PCR; format: in vivo, human
Protocol: The effect of anti-CTLA-4 antibody (tremelimumab) pre-treatment on PD-1 expression in peripheral blood was tested by Taqman qRT-PCR.

PD-1 = PD-1 (Homo sapiens, UniProt Q15116); assay: Binding affinity of anti-PD-1 antibody
PD-1 expressing T cells = assay: Magnetic bead enrichment (selection) of PD-1 expressing T cells with biotinylated anti-PD-1 antibody; format: cell-based, human; conditions: 4° C.
Protocol: Donor blood was obtained in the form of human peripheral blood through standard leukapheresis or blood draw protocols. The red blood cells were removed from the donor blood by centrifugation protocols known in the art. Briefly, the peripheral blood was centrifuged, the supernatant discarded, the pellet was resuspended in ammonium chloride potassium (ACK) buffer, the ACK pellet suspension was incubated at room temperature, and the cells were washed twice in wash buffer to produce a cell pellet.
Enrichment of the PD-1 expressing cells was then performed. The washed cell pellet was resuspended in wash buffer and cell count determined. Wash buffer was added to bring the cell density to 100×10^6 cells per mL. 1 μg/mL MEDI3097 antibody was added to the cells to produce an antibody-cell mixture comprising cells and MEDI3097 antibody. The antibody mixture was incubated at 4° C. for 15 minutes and then centrifuged and washed twice with wash buffer. Wash buffer was added to bring cell density to 125×10^6 cells per mL. Anti-biotin beads were then added to the cells at a concentration of 2 mL beads per 1 billion cells to produce a bead mixture. […]
Enrichment of PD-1 expressing T cells was performed after red blood cells were removed from leukapheresis products. The washed cell pellet was resuspended in wash buffer and cell count determined. […]

PD-1, sequence (Q15116 25-288): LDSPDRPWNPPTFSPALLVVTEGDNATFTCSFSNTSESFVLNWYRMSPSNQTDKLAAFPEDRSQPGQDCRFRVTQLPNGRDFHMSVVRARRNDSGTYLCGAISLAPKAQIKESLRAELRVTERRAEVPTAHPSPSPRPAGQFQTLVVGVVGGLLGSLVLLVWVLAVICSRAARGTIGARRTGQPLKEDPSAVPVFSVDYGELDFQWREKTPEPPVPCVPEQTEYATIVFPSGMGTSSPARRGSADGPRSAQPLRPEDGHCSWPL

Molecule: tremelimumab: anti-CTLA-4 antibody
overall survival (OS) of patients with induced PD-1 expression ([1]; high responder group versus <1.5 fold group, clinical trial NTC02527434): improved overall survival | increase PD-1 expression in peripheral blood ([1]; in a group of patients, after 9-10 days): > 1.5 fold

binding affinity (PD-1): high binding affinity
B1: LO115: anti-PD-1 antibody (antibody)
heavy: EVQLVESGGGLVQPGGSLRLSCAASGFTFSDYGMHWVRQAPGKGLEWVAYISSGSYTIYSADSVKGRFTISRDNAKNSLYLQMNSLRAEDTAVYYCARRAPNSFYEYYFDYWGQGTTVTVSSASTKGPSVFPLAPSSKSTSGGTAALGCLVKDYFPEPVTVSWNSGALTSGVHTFPAVLQSSGLYSLSSVVTVPSSSLGTQTYICNVNHKPSNTKVDKRVEPKSCDKTHTCPPCPAPEFEGGPSVFLFPPKPKDTLMISRTPEVTCVVVDVSHEDPEVKFNWYVDGVEVHNAKTKPREEQYNSTYRVVSVLTVLHQDWLNGKEYKCKVSNKALPASIEKTISKAKGQPREPQVCTLPPSREEMTKNQVSLSCAVKGFYPSDIAVEWESNGQPENNYKTTPPVLDSDGSFFLVSKLTVDKSRWQQGNVFSCSVMHEALHNHYTQKSLSLSPGK
light: QIVLTQSPATLSLSPGERATLSCSASSKHTNLYWSRHMYWYQQKPGQAPRLLIYLTSNRATGIPARFSGSGSGTDFTLTISSLEPEDFAVYYCQQWSSNPFTFGQGTKLEIKRTVAAPSVFIFPPSDEQLKSGTASVVCLLNNFYPREAKVQWKVDNALQSGNSQESVTEQDSKDSTYSLSSTLTLSKADYEKHK

binding affinity (PD-1): low binding affinity
B2: MEDI0680: anti-PD-1 antibody (antibody, V domains shown)
VH: EVQLVESGGGLVQPGGSLRLSCAASGFTFSDYGMHWVRQAPGKGLEWVAYISSGSYTIYSADSVKGRFTISRDNAKNTLYLQMSSLRAEDTAVYYCARRGYGSFYEYYFDYWGQGTTVTVSS
VL: QIVLTQSPATLSLSPGERATLSCSASSSVSYMYWYQQKPGQAPRLLIYLTSNRATGIPARFSGSGSGTDYSSTLTISSLEPEDFAVYYCQQWSSNPFTFGQGTKLEIK
antibody concentration at which impact on PD-1 expression level plateaued (PD-1 expressing T cells): around 5.0 μg/mL
